Source: patent publication US20250002577A1 (ONCORESPONSE, published 2025)

What was measured:
[1] = molecular target: T1, human LILRB1 on cells (human, UniProt Q8NHL6 24-650); assay: flow cytometry, HEK293-6E transfectants
T1 construct: whole, on cells; also called hLILRB1; LILRB1-expressing 721.221 cells
Protocol: (§1) To determine that the parent chimera anti LILRB2/1 antibody specifically binds to LILRB2 and LILRB1 and not to other LILRB and LILRA family members, a cross-reactivity assay was performed. Cross-reactivity was assessed by antibody binding to transiently transfected HEK293-6E cells by flow cytometry. Binding was evaluated to HEK293-6E cells transiently transfected with human LILRB-1, -2, -3, -4, and 5 plasmids (Origene, Nos. RC219949, RC217935, RC211228, RC220932, RC206516) or to cells transiently transfected with human LILRA-1, -2, -4, -5, and -6 plasmids (Origene, Nos. RC210808, RC205626, RC220452, RC212310 RC212965). […] At a concentration of 1 μg/mL, no binding of B21A1 or the humanized variants to LILRB-3, -4, or -5 was observed (Table 7). Additionally, no binding to LILRA-1, -2, -4, -5, or -6 was observed, confirming the specificity of B21A1 and its humanized variants to LILRB1 and LILRB2 (Table 8).

[2] = molecular target: T2, human LILRB2 on cells (human, UniProt Q8N423 22-597); assay: flow cytometry, HEK293-6E transfectants
T2 construct: whole, on cells; also called hLILRB2; LILRB2-HEK293T
T2 sequence (Q8N423 22-597): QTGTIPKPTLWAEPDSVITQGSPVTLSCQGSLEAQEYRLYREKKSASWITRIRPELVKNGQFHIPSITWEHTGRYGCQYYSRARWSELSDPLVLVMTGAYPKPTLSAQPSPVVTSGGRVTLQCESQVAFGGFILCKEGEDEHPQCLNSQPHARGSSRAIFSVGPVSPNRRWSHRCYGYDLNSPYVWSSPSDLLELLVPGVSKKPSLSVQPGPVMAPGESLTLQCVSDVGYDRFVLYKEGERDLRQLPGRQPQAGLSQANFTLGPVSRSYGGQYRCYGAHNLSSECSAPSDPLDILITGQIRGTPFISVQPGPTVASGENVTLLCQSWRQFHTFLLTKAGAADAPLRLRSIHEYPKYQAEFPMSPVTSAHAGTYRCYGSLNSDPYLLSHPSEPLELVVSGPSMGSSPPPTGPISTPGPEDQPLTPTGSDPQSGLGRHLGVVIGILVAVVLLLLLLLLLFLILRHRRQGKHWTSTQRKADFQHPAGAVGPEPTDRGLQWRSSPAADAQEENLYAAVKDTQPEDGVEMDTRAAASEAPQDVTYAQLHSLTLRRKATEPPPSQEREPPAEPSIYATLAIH
Protocol: as §1

[3] = molecular target: T3, human LILRB3 on HEK293-6E cells (human, UniProt O75022 24-631); assay: flow cytometry, HEK293-6E transfectants
T3 construct: whole, on cells; also called hLILRB3
T3 sequence (O75022 24-631): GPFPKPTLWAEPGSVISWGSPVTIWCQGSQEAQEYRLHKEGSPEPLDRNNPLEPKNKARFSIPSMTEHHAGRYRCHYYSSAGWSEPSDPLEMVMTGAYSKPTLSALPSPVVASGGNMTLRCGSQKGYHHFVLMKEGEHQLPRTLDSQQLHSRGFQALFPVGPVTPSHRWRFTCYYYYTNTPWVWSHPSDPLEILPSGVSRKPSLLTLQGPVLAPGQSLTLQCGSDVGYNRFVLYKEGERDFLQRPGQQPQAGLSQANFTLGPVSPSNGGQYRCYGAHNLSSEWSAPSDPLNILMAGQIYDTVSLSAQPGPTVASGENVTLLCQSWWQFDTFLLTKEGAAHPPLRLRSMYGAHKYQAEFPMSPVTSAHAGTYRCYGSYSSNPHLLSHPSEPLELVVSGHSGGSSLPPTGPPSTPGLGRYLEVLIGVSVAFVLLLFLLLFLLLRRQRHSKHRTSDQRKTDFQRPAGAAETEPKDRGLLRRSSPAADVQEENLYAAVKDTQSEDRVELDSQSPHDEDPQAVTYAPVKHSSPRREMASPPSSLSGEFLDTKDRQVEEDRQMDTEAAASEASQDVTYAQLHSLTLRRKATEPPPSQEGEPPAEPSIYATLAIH
Protocol: as §1

[4] = molecular target: T4, human LILRB4 on HEK293-6E cells (human, UniProt Q8NHJ6 22-448); assay: flow cytometry, HEK293-6E transfectants
T4 construct: whole, on cells; also called hLILRB4
Protocol: as §1

[5] = molecular target: T5, human LILRB5 on HEK293-6E cells (human, UniProt O75023 24-590); assay: flow cytometry, HEK293-6E transfectants
T5 construct: whole, on cells; also called hLILRB5
Protocol: as §1

[6] = molecular target: T6, human LILRA1 on HEK293-6E cells (human, UniProt O75019 17-489); assay: flow cytometry, HEK293-6E transfectants
T6 construct: whole, on cells; also called hLILRA1
T6 sequence (O75019 17-489): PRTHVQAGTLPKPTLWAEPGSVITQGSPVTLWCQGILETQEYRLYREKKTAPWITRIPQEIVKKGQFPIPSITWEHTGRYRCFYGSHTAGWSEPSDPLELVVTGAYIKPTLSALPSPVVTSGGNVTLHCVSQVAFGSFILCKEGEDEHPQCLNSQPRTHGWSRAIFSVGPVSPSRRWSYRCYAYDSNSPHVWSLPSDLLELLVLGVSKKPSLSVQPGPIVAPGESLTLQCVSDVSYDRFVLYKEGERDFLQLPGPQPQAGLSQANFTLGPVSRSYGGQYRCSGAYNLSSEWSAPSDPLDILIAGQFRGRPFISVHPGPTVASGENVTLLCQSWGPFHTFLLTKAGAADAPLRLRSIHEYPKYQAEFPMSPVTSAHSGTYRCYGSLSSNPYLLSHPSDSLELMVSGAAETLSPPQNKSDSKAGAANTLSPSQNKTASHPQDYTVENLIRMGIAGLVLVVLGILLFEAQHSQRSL
Protocol: as §1

[7] = molecular target: T7, human LILRA2 on HEK293-6E cells (human, UniProt Q8N149 24-483); assay: flow cytometry, HEK293-6E transfectants
T7 construct: whole, on cells; also called hLILRA2
T7 sequence (Q8N149 24-483): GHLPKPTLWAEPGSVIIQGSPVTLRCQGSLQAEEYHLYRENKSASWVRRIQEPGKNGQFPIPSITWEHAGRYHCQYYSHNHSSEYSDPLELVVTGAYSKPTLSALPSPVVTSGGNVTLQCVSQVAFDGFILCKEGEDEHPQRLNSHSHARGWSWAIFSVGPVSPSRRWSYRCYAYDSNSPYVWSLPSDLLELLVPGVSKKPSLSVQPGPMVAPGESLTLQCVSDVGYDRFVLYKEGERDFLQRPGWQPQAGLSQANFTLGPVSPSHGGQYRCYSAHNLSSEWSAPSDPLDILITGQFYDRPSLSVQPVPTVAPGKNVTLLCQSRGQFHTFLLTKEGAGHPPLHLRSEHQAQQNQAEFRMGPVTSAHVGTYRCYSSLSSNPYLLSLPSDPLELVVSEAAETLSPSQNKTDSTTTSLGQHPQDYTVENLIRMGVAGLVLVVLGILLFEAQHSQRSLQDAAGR
Protocol: as §1

[8] = molecular target: T8, human LILRA4 on HEK293-6E cells (human, UniProt P59901 24-499); assay: flow cytometry, HEK293-6E transfectants
T8 construct: whole, on cells; also called hLILRA4
T8 sequence (P59901 24-499): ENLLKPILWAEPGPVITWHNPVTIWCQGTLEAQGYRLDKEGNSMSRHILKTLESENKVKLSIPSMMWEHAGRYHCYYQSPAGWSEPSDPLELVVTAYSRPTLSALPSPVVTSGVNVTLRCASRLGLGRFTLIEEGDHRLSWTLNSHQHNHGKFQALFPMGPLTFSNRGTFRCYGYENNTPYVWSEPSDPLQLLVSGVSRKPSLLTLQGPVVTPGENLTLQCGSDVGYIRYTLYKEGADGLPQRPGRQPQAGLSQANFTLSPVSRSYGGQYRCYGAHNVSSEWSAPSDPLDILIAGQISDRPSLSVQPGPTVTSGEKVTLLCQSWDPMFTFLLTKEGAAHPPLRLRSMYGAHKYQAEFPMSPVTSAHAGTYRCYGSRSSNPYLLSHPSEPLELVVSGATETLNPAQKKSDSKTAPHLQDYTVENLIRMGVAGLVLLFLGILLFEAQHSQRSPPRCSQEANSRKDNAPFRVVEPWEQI
Protocol: as §1

[9] = molecular target: T9, human LILRA5 on HEK293-6E cells (human, UniProt A6NI73 42-299); assay: flow cytometry, HEK293-6E transfectants
T9 construct: whole, on cells; also called hLILRA5
T9 sequence (A6NI73 42-299): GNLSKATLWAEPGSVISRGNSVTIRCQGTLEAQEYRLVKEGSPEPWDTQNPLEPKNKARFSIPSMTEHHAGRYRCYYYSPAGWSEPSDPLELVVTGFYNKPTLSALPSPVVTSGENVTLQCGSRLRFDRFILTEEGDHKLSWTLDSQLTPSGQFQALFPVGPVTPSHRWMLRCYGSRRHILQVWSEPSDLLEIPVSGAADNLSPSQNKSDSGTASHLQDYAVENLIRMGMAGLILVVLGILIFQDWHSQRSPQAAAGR
Protocol: as §1

[10] = molecular target: T10, human LILRA6 on HEK293-6E cells (human, UniProt Q6PI73 24-481); assay: flow cytometry, HEK293-6E transfectants
T10 construct: whole, on cells; also called hLILRA6
T10 sequence (Q6PI73 24-481): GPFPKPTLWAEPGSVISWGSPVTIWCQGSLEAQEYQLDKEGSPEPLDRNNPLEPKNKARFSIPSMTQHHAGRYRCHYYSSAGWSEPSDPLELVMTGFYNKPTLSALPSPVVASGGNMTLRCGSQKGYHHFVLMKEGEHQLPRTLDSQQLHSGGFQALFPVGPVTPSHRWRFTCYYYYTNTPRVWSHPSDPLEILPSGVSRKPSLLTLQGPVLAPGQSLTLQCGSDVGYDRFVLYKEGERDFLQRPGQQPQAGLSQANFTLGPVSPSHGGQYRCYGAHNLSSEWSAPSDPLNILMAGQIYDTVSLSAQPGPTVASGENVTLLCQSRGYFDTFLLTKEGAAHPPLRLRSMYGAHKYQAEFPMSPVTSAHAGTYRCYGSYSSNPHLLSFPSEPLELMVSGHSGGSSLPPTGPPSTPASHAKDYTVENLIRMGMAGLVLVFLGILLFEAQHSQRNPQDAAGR
Protocol: as §1

[11] = molecular target: T11, recombinant human LILRB1-His (human, UniProt Q8NHL6 24-458); assay: MSD ELISA, coated antigen, purified IgG1
T11 construct: Bought protein; also called LILRB1 protein
T11 sequence (Q8NHL6 24-458 limits assumed): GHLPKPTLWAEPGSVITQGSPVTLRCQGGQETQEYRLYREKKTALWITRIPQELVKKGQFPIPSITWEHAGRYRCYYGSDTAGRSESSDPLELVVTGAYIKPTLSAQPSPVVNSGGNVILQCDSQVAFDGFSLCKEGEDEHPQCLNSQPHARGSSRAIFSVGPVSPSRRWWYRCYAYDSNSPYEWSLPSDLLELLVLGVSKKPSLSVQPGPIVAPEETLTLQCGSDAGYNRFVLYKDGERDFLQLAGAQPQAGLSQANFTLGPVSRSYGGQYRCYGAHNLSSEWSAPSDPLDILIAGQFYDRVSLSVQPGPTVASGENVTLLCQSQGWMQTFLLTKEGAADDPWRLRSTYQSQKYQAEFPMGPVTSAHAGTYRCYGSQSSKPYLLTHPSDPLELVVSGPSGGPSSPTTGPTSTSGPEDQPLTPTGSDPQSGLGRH
Protocol: (§2) Recombinant human and cynomolgus LILRB1 proteins (R&D Systems, No. 8989-T2-050; ACROBiosystems, No. CDJ-C52H3) and recombinant human and cynomolgus LILRB2 proteins (ACROBiosystems, No. LI2-H5220; No. L12-C52H3) were diluted in PBS to 4 μg/mL and added to a multi-array 384-well high-binding plates (MSD, No. L21XA4) at 10 μL/well and incubated at 4° C. overnight. The plates were washed several times with Wash Buffer (0.05% Tween® 20 in PBS), using a microplate washer and then blocked with 70 μL/well of 5% BSA in PBS for 1 hour (h) at room temperature (RT) with shaking at 700 rpm. After blocking, 20 μL/well of anti-LILRB2/LILRB1 antibodies or isotype control were added to the plates, and the plates were sealed and incubated for 2 h at RT with shaking at 700 rpm. After primary antibody binding, plates were washed five times with 70 μL/well of Wash Buffer (0.05% Tween® 20 in PBS) using a microplate washer. Secondary detection antibody (SULFO-TAG™-labeled goat anti-human IgG antibody (MSD, No. R32AJ-1)) was diluted to 4 μg/mL in assay diluent (1% BSA in PBS) and 10 μL/well was added to plates and incubated at RT protected from light for 1 h, with shaking at 700 rpm. Following incubation, plates were washed five times with Wash Buffer, using a microplate washer. After removal of the final wash, 35 μL/well of MSD Gold Read Buffer B (MSD, No. R60AM-4) was added to all wells using a Multidrop combo washer/dispenser, and plates were read using MESO Sector 600MM instrument (MSD) within 5 minutes (min) after addition of Read Buffer. Signals as counts per minute (cpm) were recorded. EC₅₀ values were calculated using GraphPad Prism based on log concentration of the primary antibodies versus cpm values.

[12] = molecular target: T12, recombinant human LILRB2-His (human, UniProt Q8N423 22-461, limits assumed); assay: MSD ELISA, coated antigen, purified IgG1
T12 construct: Bought protein; also called LILRB2 protein
T12 sequence (Q8N423 22-461 limits assumed): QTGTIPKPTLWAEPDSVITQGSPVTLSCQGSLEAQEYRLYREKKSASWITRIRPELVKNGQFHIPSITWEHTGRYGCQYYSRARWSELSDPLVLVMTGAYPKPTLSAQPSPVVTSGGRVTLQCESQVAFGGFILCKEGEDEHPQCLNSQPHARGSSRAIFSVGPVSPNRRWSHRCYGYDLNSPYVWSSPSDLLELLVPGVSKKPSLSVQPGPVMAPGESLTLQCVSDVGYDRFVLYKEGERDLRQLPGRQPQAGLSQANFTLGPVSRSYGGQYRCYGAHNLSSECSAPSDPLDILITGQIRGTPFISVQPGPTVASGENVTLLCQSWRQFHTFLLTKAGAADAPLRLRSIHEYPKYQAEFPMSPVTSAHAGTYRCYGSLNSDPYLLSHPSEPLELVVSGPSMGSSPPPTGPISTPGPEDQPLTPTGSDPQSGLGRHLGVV
Protocol: as §2

[13] = molecular target: T2, human LILRB2 on cells; assay: flow cytometry, LILRB2-HEK293T cells, AF647-labelled antibody
Protocol: While LILRB2 expression is mostly restricted to myeloid cells, LILRB1 has a broader expression on immune cell subsets, including B cells, T cells and NK cells.
Frozen cells were removed from storage in vapor phase liquid nitrogen and thawed by gentle swirling in a water bath at 37° C., then resuspended in DMEM media with 10% FBS. Cells were placed in a 15 mL conical tube and centrifuged at 300×g for 5 min, then supernatant was removed. Cells were resuspended in DMEM+10% FBS at a cell density of 2×10⁵ cells/mL in a T75 flask for culturing, and incubated at 37° C., 5% CO₂ for 3 days before passaging. Cells were passaged when the cell density reached 1×10⁶ cell/mL. On the day of the assay, cells were centrifuged, then supernatant was removed. Cells were resuspended in Blocking Buffer B (FACS Buffer containing 10% FBS and 0.5 mg/mL human IgG1 (Athens Research, No. 16-16-090707-1M)+0.05% NaN₃, 5% (w/v)) in a 15 mL conical tube, then incubated at 4° C. for 30 min. […] Cells were incubated with antibodies at 4° C. for 1 h. Cells were washed twice in FACS Buffer (PBS containing 2 mM EDTA+1% FBS+0.05% NaN₃) and then stained with for 10 min with Zombie Violet™ fixable viability dye (BioLegend, No. 423114) at RT, washed with FACS Buffer and resuspend in 75 μL of FACS Buffer for acquisition on a BD FACSymphony™ or BD FACSCanto™ II flow cytometer (BD Biosciences), as described in Example 6.

T1 sequence (Q8NHL6 24-650): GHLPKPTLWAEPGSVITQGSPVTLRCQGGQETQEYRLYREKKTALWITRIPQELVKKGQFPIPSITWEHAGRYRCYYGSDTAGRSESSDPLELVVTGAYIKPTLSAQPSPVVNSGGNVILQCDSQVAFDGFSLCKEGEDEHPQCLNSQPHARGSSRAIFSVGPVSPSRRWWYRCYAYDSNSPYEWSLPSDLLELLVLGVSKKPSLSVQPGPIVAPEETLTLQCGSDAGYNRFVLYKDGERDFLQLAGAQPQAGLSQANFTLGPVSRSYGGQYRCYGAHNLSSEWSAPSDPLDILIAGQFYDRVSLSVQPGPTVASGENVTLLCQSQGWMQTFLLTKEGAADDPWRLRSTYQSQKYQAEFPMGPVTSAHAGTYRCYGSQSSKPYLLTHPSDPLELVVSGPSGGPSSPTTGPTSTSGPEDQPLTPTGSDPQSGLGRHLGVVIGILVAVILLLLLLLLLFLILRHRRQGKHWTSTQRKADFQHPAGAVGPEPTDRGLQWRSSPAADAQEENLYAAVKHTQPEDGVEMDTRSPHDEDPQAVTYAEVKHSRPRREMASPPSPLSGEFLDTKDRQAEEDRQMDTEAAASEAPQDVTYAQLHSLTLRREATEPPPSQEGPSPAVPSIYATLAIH

Row | Binder | MFI [1] [MFI] | MFI [2] [MFI] | MFI [3] [MFI] | binding result [3] | MFI [4] [MFI] | binding result [4] | MFI [5] [MFI] | binding result [5] | MFI [6] [MFI] | binding result [6] | MFI [7] [MFI] | binding result [7] | MFI [8] [MFI] | binding result [8] | MFI [9] [MFI] | binding result [9] | MFI [10] [MFI] | binding result [10] | EC50 [11] [ng/mL] | EC50 [12] [ng/mL] | also measured
1 | B21H1-23 (antibody, human IgG1, kappa, humanized IgG1/kappa, VH2+VL3) heavy: not shown light: DIVMTQSPSSVSASVGDRVTITCQASGNIYSFLAWYQQKPGKAPKLLIYTASNLETGVPSRFSGSGSGTDFTLTISSLQPEDFATYYCLGGLYSSDVSYAFGGGTKVVIKRTVAAPSVFIFPPSDEQLKSGTASVVCLLNNFYPREAKVQWKVDNALQSGNSQESVTEQDSKDSTYSLSSTLTLSKADYEKHKVYACEVTHQGLSSPVTKSFNRGEC | 1060 | 5430 | 96.2 | no binding (tested: 1 µg/mL) | 30.1 | no binding (tested: 1 µg/mL) | 92 | no binding (tested: 1 µg/mL) | 210 | no binding (tested: 1 µg/mL) | 27.5 | no binding (tested: 1 µg/mL) | 136 | no binding (tested: 1 µg/mL) | 75.3 | no binding (tested: 1 µg/mL) | 140 | no binding (tested: 1 µg/mL) | 8.64 | 30.7 | EC50 [13]: 1.63 ng/mL
2 | B21H1-13 (antibody, human IgG1, kappa, humanized IgG1/kappa, VH1+VL3) heavy: not shown light: DIVMTQSPSSVSASVGDRVTITCQASGNIYSFLAWYQQKPGKAPKLLIYTASNLETGVPSRFSGSGSGTDFTLTISSLQPEDFATYYCLGGLYSSDVSYAFGGGTKVVIKRTVAAPSVFIFPPSDEQLKSGTASVVCLLNNFYPREAKVQWKVDNALQSGNSQESVTEQDSKDSTYSLSSTLTLSKADYEKHKVYACEVTHQGLSSPVTKSFNRGEC | 1000 | 5370 | 84.7 | no binding (tested: 1 µg/mL) | 29.1 | no binding (tested: 1 µg/mL) | 89.8 | no binding (tested: 1 µg/mL) | 201 | no binding (tested: 1 µg/mL) | 25.8 | no binding (tested: 1 µg/mL) | 130 | no binding (tested: 1 µg/mL) | 75.7 | no binding (tested: 1 µg/mL) | 142 | no binding (tested: 1 µg/mL) | 5.45 | 20.3 | EC50 [13]: 2.23 ng/mL
3 | B21H1-22 (antibody, human IgG1, kappa, humanized IgG1/kappa, VH2+VL2) heavy: not shown light: DIQMTQSPSSLSASVGDRVTITCQASGNIYSFLAWYQQKPGKVPKLLIYTASNLETGVPSRFSGSGSGTDYTLTISSLQSEDAATYYCLGGLYSSDVSYAFGGGTKVVIKRTVAAPSVFIFPPSDEQLKSGTASVVCLLNNFYPREAKVQWKVDNALQSGNSQESVTEQDSKDSTYSLSSTLTLSKADYEKHKVYACEVTHQGLSSPVTKSFNRGEC | 914 | 5590 | 90.1 | no binding (tested: 1 µg/mL) | 29.9 | no binding (tested: 1 µg/mL) | 91.4 | no binding (tested: 1 µg/mL) | 295 | no binding (tested: 1 µg/mL) | 27.6 | no binding (tested: 1 µg/mL) | 132 | no binding (tested: 1 µg/mL) | 76.7 | no binding (tested: 1 µg/mL) | 140 | no binding (tested: 1 µg/mL) | 8.18 | 25.3 | EC50 [13]: 1.07 ng/mL
